Sequences and labels used below:
B1: recombinant Ihh (ligand)
chain: not shown
B2: GPC6ΔGAG-AP fusion protein (natural protein)
chain: DVKARSCSEVRQAYGAKGFSLADIPYQEIAGEHLRICPQEYTCCTTEMEDKLSQQSKLEFENLVEETSHFVRTTFVSRHKKFDEFFRELLENAEKSLNDMFVRTYGMLYMQNSEVFQDLFTELKRYYTGGNVNLEEMLNDFWARLLERMFQLINPQYHFSEDYLECVSKYTDQLKPFGDVPRKLKIQVTRAFIAARTFVQGLTVGREVANRVSKVSPTPGCIRALMKMLYCPYCRGLPTVRPCNNYCLNVMKGCLANQADLDTEWNLFIDAMLLVAERLEGPFNIESVMDPIDVKISEAIMNMQENSMQVSAKVFQGCGQPKPAPALRSARSAPENFNTRFRPYNPEERPTTAAGTSLDRLVTDIKEKLKLSKKVWSALPYTICKDERVTAGTSNEEECWNGHSKARYLPEIMNDGLTNQINNPEVEVDITRPDTFIRQQIMALRVMTNKLKNAYNGNDVNFQDTSDESAGAGAGAGCMDDVCPTEFEFVTTEAPAVDPDRREEESS
modifications: biotinylated with EZ-link Sulfo-NHS-LC biotin for SPR

What all share (assay): SPR
(In SPR one partner is held on a chip, and binding of the other changes the refractive index at the surface.)

One experiment deals with T1, GPC6-AP fusion protein (UniProt Q9R087 24-530, carries glycosaminoglycan (GAG) chains; biotinylated with EZ-link Sulfo-NHS-LC biotin for SPR).
T1 sequence: B2 chain with A470S, A472S, A474S, A476S

The next experiment addresses recombinant Shh (UniProt Q62226 25-198).
The experiment “recombinant Ihh” has as its target B1.

Where a chain is given by its changes, count along the chain named.

Sequence of recombinant Shh (Q62226 25-198): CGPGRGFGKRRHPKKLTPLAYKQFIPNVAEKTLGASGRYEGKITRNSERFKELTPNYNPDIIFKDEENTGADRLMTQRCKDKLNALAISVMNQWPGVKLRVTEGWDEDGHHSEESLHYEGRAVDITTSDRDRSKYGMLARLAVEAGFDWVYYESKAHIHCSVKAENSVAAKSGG
Sequence of recombinant Ihh (P97812 28-202): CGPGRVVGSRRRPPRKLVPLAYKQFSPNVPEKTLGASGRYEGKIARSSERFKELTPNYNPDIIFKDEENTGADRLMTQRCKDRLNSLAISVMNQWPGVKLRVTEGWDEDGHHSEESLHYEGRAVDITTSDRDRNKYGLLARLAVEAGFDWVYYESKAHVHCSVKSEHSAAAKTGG

In the case of B1, the Kd (commonly the constant that tells how readily two partners part at equilibrium) with GPC6-AP fusion protein was found to be 14 nM. For the molecule B2, the values for the Kd with recombinant Shh and with recombinant Ihh were 21 nM and 16 nM, respectively.

Values taken from PMC5584141 (The Journal of Cell Biology, 2017).
